{"source": "patent US20230133118A1", "about": "“COMPOSITIONS AND METHODS FOR TREATING CANCER” (Adagene AG, priority 2020, published 2023)", "key": {"[1]": {"assay": "Clinical immunogenicity, anti-drug antibody (ADA) immunoassay", "assay_type": "in vivo, human", "experimental": "Blood samples were collected as described in the PK analysis. The anti-drug-antibody (ADA) to ADG106 in human serum was measured using a validated Affinity Capture and Elution (ACE) based immunoassay. All samples were first analyzed for ADAs in a screening assay. Study samples with results below the screening cut-off were reported as negative for ADAs. In the event of a positive result in the screening assay, samples were analyzed in the confirmatory assay. All samples confirmed positive were reported as positive."}, "[2]": {"system": "peripheral CD4+ and CD8+ T cells", "assay": "Ki-67 expression on peripheral T cells of patients by flow cytometry", "assay_type": "in vivo, human", "description": "T cell proliferation was examined by analyzing Ki-67 expression using flow cytometry analysis. Soluble CD137 (sCD137) levels in plasma were also examined using a validated MSD-based electrochemiluminescence assay."}, "[3]": {"system": "NK (CD16+/CD56+) cells", "assay": "TBNK flow cytometry of patient peripheral blood, NK cell percentage", "assay_type": "in vivo, human", "details": "for Percentage of NK cells (CD3-CD56+/CD16+), Postdose: individual patients", "experimental": "Pre- and post-treatment peripheral blood samples from 31 patients in a phase 1 trial were collected for biomarker analyses. The TBNK flow cytometry assay was employed to measure the composition of T (CD3+, CD4+/CD8+ subsets), B (CD19+) and NK (CD16+/CD56+) cells in peripheral blood samples. NK cell levels were determined as percentages of CD45+ lymphocytes and absolute cell counts."}, "[4]": {"system": "L5178-R murine T cell lymphoma", "assay": "L5178-R murine T cell lymphoma syngeneic model", "assay_type": "in vivo, DBA/2 mice", "details": "20 mg/kg i.p. once every 3 days", "description": "(§1) The animals were randomized and treatment started when tumor volumes reach 50-80 mm^3, or on the day of cell inoculation (FIGS. 17A and 17C). Each group consisted of 8 tumor-bearing mice. […] Tumor growth and animal body weight were monitored every 2-3 days."}, "[5]": {"system": "L5178-S murine T cell lymphoma", "assay": "L5178-S murine T cell lymphoma syngeneic model", "assay_type": "in vivo, DBA/2 mice", "details": "20 mg/kg i.p. once every 3 days", "description": "as §1"}, "[6]": {"system": "3LL (JCRB) murine lung cancer cells", "assay": "3LL lung cancer model, ADG106 with atezolizumab", "assay_type": "in vivo, C57BL/6 mice", "details": "10 mg/kg i.p. twice a week for 3 weeks", "description": "C57BL/6 mice (n=10 per group, female, 6-8 weeks old) were inoculated subcutaneously with 3LL (JCRB) murine lung cancer cells, a Lewis lung cancer cell line."}, "[7]": {"system": "Lewis lung cancer cells", "assay": "Lewis lung cancer model, ADG106 with anti-PD-1 antibody 2E5", "assay_type": "in vivo, C57BL/6 mice", "details": "5 mg/kg i.p. twice a week for 2 weeks", "text": "C57BL16 mice (n=8 per group, female, 6-8 weeks old) were transplanted subcutaneously with 5×10^5 Lewis lung cancer cells. […] Tumor growth was monitored twice weekly and reported as mean tumor volume ±SEM over time."}, "[8]": {"system": "4T1 breast cancer cells", "assay": "4T1 breast cancer model, ADG106 with ADG116", "assay_type": "in vivo, BALB/c mice", "details": "ADG106 5 mg/kg, ADG116 2 mg/kg i.p. twice a week for 2 weeks", "description": "(§2) Tumor growth was monitored twice weekly and is reported as mean tumor volume ±SEM over time."}, "[9]": {"system": "4T1 breast cancer cells", "assay": "4T1 breast cancer model, ADG106 with docetaxel", "assay_type": "in vivo, BALB/c mice", "details": "5 mg/kg; ADG106 i.p. twice a week 4 doses, Docetaxel i.v. once a week 3 doses", "description": "as §2"}, "[10]": {"system": "LLC-CD20 cells", "assay": "LLC-CD20 lung cancer model, ADG106 with rituximab", "assay_type": "in vivo, C57BL/6 mice", "details": "10 mg/kg i.p. twice a week for 3 weeks", "text": "C57BL/6 mice (n=6 per group, female, 6-8 weeks old) were transplanted subcutaneously with 5×10^5 LLC-CD20 cells, a Lewis lung cancer cell line expressing CD20. […] Tumor growth was monitored twice weekly and reported as mean tumor volume ±SEM over time."}, "[11]": {"system": "MC38 colon cancer cells", "assay": "MC38 colon cancer model, ADG106 with local radiation", "assay_type": "in vivo, C57BL/6 mice", "details": "10 mg/kg twice a week for 3 weeks", "text": "C57BL/6 mice (n=8 per group, female, 6-8 weeks old) were transplanted subcutaneously with 5×10^5 MC38 colon cancer cells. […] Tumor growth was monitored twice weekly and reported as mean tumor volume ±SEM over time."}, "[12]": {"system": "CD137 receptor", "assay": "Cellular NFκB reporter gene assay (CD137-expressing NFκB-Luc Jurkat reporter cells)", "assay_type": "cell-based, human", "details": "functional cellular NFκB reporter gene assay", "experimental": "(§3) The CD137-expressing NFκB-Luc Jurkat reporter cells were stimulated with the anti-CD137 antibodies in the absence (left panel) or presence (right panel) of co-cultured CHO-K1 cell expressing human FcγRIIb. Luciferase activity was measured by bioluminescence assay."}, "[13]": {"system": "T cells", "assay": "T cell activation in vitro (with anti-CD3 antibody co-treatment)", "assay_type": "cell-based", "description": "To elaborate, there could be unquantified/uncertain combination effect with other MOAs, particularly with Immuno-oncology (IO) agents which could be potentially additive and/or synergistic for AEs."}, "[14]": {"system": "human blood", "assay": "Cytokine release in human blood ex vivo", "assay_type": "cell-based"}, "[15]": {"system": "rabbit blood", "assay": "In vitro hemolysis in rabbit blood", "details": "concentrations up to 2.54 mg/mL", "description": "Furthermore, with the cytoplasmic nature of the staining, no significant biological relevancy is anticipated."}, "[16]": {"details": "human, in vivo, iv", "quoted_text": "(§4) Blood samples for PK analysis were collected at Cycle 1 (Day 1: pre-dose and 2, 6, 12, and 24 hours after the end of infusion; once on Days 8, 15, and 22), Day 1 pre-dose and 2 hours after the end of infusion of subsequent cycles, and at the End of Treatment. […] PK parameters were estimated using a non-compartmental method with WinNonlin."}, "[17]": {"assay": "Clinical pharmacokinetics, serum ADG106 by ELISA, non-compartmental analysis", "quoted_text": "as §4"}, "[18]": {"target": "CD137 (Homo sapiens, UniProt Q07011)", "sequence (Q07011 24-255)": "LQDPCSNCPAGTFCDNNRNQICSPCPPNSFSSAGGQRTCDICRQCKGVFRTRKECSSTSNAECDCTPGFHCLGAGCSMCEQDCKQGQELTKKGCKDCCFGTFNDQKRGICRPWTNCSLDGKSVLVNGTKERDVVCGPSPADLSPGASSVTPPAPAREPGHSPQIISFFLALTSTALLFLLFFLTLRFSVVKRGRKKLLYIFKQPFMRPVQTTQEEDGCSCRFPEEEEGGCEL", "assay": "Cellular NFκB reporter gene assay (CD137-expressing NFκB-Luc Jurkat reporter cells)", "assay_type": "cell-based", "set-up": "expressed in transfected cells; host or cells: NFκB-Luc Jurkat reporter cells (with or without co-cultured CHO-K1 cells expressing human FcγRIIb)", "experimental": "as §3"}}, "note": "“And” between values parts separate entries of the source, which are not always exact repeats. Equal entries are not always repeated. Where two headings read alike, the source gives them in different places. Marks after values point to notes of the source that are not given here.", "data": [{"substance": "ADG106: fully human agonistic anti-CD137 monoclonal IgG4 antibody; heavy chain SEQ ID NO: 10, light chain SEQ ID NO: 11", "values": [{"measurement": "treatment emergent or boosted ADA", "setting": "[1]; Chinese patients tested so far", "value": "5 of 23"}, {"measurement": "patients with treatment-induced anti-drug antibodies", "setting": "[1]; patients tested", "value": "about 20%"}, {"measurement": "increase in the frequency of Ki-67+CD4+ T cells", "setting": "[2]; patient R011", "value": "increased about one fold"}, {"measurement": "increase in the frequency of proliferating CD8+ T cells", "setting": "[2]; patient R011", "value": "four to five fold increase"}, {"measurement": "total CD8+ T cells expressing Ki-67 at peak", "setting": "[2]; patient R011, 21 days after infusion", "value": "~25", "unit": "%"}, {"measurement": "Percentage of NK cells (CD3-CD56+/CD16+), Postdose", "setting": "[3]; C1D8", "value": "25.14% and 28.38% and 11.18% and 22.03% and 35.85% and 36.13% and 8.25% and 22.79% and 46.22% and 15.01% and 14.06% and 34.54% and 11.84% and 32.43% and 10.14% and 23.1% and 55% and 35.4% and 19.5% and 14.7% and 25%"}, {"measurement": "Percentage of NK cells (CD3-CD56+/CD16+), Postdose", "setting": "[3]; C1D15", "value": "21.21* % and 22.19* %"}, {"measurement": "Percentage of NK cells (CD3-CD56+/CD16+), Postdose", "setting": "[3]; C1D21", "value": "39.58^# % and 4.27^# % and 20.01^# % and 34.74^# % and 40.45^# % and 26.93^# % and 27.23^# % and 18.81^# % and 16.65^# %"}, {"measurement": "dose saturating CD137 receptors on NK cells (NK cell proliferation effect)", "setting": "[3]; patients", "value": "≥ 1.5", "unit": "mg/kg"}, {"measurement": "antitumor activity", "setting": "[4]", "value": "resistant to ADG106 treatment"}, {"measurement": "antitumor activity", "setting": "[5]", "value": "has antitumor activity"}, {"measurement": "anti-tumor activity, monotherapy", "setting": "[6]", "value": "showed anti-tumor activity"}, {"measurement": "tumor growth, single agent", "setting": "[7]", "value": "significantly inhibit tumor growth"}, {"measurement": "anti-tumor activity, monotherapy", "setting": "[8]", "value": "showed anti-tumor activity"}, {"measurement": "anti-tumor activity, mono-therapy", "setting": "[9]", "value": "marginal anti-tumor activity"}, {"measurement": "tumor growth, single agent", "setting": "[10]", "value": "only weakly inhibited tumor growth"}, {"measurement": "antitumor activity, alone", "setting": "[11]", "value": "marginal if any antitumor activity"}, {"measurement": "potency to activate recombinant human, monkey, mouse, and rat CD137 receptors", "setting": "[12]", "value": "comparable nanomolar potency"}, {"measurement": "concentration range triggering observable, not maximal T cell activation", "setting": "[13]; in vitro", "value": "1 to 3", "unit": "µg/mL"}, {"measurement": "concentration range triggering robust T cell activation", "setting": "[13]; with anti-CD3 antibody co-treatment", "value": "≥ 10", "unit": "µg/mL"}, {"measurement": "cytokine (IL-2, IL-4, IL-6, IL-10, TNF-α, IFN-γ, IL-17) release", "setting": "[14]", "value": "did not stimulate cytokine"}, {"measurement": "hemolysis", "setting": "[15]", "value": "no ADG106-related hemolysis"}, {"measurement": "T1/2", "setting": "[16]; 0.03 mg/kg", "value": 87, "unit": "h"}, {"measurement": "T1/2", "setting": "[16]; 0.3 mg/kg", "value": 159, "unit": "h"}, {"measurement": "T1/2", "setting": "[16]; 1 mg/kg", "value": 146.3, "unit": "h"}, {"measurement": "T1/2", "setting": "[16]; 3 mg/kg", "value": 149, "unit": "h"}, {"measurement": "AUC(0-t)", "setting": "[17]; Chinese study, 0.1 mg/kg IV", "value": 255, "unit": "µg·h/mL"}, {"measurement": "CLz", "setting": "[17]; Chinese study, 0.1 mg/kg IV", "value": 8.88, "unit": "mL/day/kg"}, {"measurement": "AUC(0-t)", "setting": "[17]; Chinese study, 0.5 mg/kg IV", "value": 1761, "unit": "µg·h/mL"}, {"measurement": "CLz", "setting": "[17]; Chinese study, 0.5 mg/kg IV", "value": 6.72, "unit": "mL/day/kg"}, {"measurement": "T½", "setting": "[17]; Chinese study, 0.5 mg/kg IV", "value": 146, "unit": "h"}, {"measurement": "AUC(0-t)", "setting": "[17]; Chinese study, 1.5 mg/kg IV", "value": 4162, "unit": "µg·h/mL"}, {"measurement": "CLz", "setting": "[17]; Chinese study, 1.5 mg/kg IV", "value": 7.92, "unit": "mL/day/kg"}, {"measurement": "T½", "setting": "[17]; Chinese study, 1.5 mg/kg IV", "value": 180, "unit": "h"}, {"measurement": "AUC(0-t)", "setting": "[17]; Chinese study, 3 mg/kg IV", "value": 10016, "unit": "µg·h/mL"}, {"measurement": "CLz", "setting": "[17]; Chinese study, 3 mg/kg IV", "value": 6, "unit": "mL/day/kg"}, {"measurement": "T½", "setting": "[17]; Chinese study, 3 mg/kg IV", "value": 214, "unit": "h"}, {"measurement": "AUC(0-t)", "setting": "[17]; Chinese study, 5 mg/kg IV", "value": 20966, "unit": "µg·h/mL"}, {"measurement": "CLz", "setting": "[17]; Chinese study, 5 mg/kg IV", "value": 5.28, "unit": "mL/day/kg"}, {"measurement": "T½", "setting": "[17]; Chinese study, 5 mg/kg IV", "value": 173, "unit": "h"}, {"measurement": "AUC(0-t)", "setting": "[17]; Chinese study, 10 mg/kg IV", "value": 39658, "unit": "µg·h/mL"}, {"measurement": "CLz", "setting": "[17]; Chinese study, 10 mg/kg IV", "value": 5.52, "unit": "mL/day/kg"}, {"measurement": "T½", "setting": "[17]; Chinese study, 10 mg/kg IV", "value": 132, "unit": "h"}, {"measurement": "AUC(0-t)", "setting": "[17]; US study, cycle 1, 0.03 mg/kg IV, n=1", "value": 0.626, "unit": "µg·h/mL"}, {"measurement": "AUC(0-t)", "setting": "[17]; US study, cycle 1, 0.1 mg/kg IV, n=1", "value": 0.668, "unit": "µg·h/mL"}, {"measurement": "AUC(0-t)", "setting": "[17]; US study, cycle 1, 0.3 mg/kg IV, n=1", "value": 1.387, "unit": "µg·h/mL"}, {"measurement": "AUC(0-t)", "setting": "[17]; US study, cycle 1, 1 mg/kg IV, n=3", "value": 3.8767, "unit": "µg·h/mL"}, {"measurement": "AUC(0-t)", "setting": "[17]; US study, cycle 1, 3 mg/kg IV, n=3", "value": 18.42, "unit": "µg·h/mL"}, {"measurement": "mean half-life", "setting": "[17]; doses ≥0.5 mg/kg", "value": "around 7 days"}, {"measurement": "concentration saturating activation of CD137 receptor signaling", "setting": "[18]; crosslinking-dependent, in vitro", "value": 1, "unit": "µg/mL"}, {"measurement": "EC80 of NFκB signaling activation", "setting": "[18]; nonlinearly regressed concentration-effect curve", "value": "≤ 1.8", "unit": "µg/mL"}, {"measurement": "human CD137 agonism following crosslinking", "setting": "[18]; with crosslinking", "value": "function as agonists"}]}]}
